Where “and” joins values, the source holds several entries; their conditions need not be identical. Identical values can stand only once. *: point of attachment. Carboxymethyl = O=C(O)C*
Target: the molecule itself
Assay: cross-linking

B1: C-MBD of A. fulgidus CopA with carboxymethylated cysteines (domain or fragment, Archaeoglobus fulgidus, UniProt O29777 736-804, looked up)
chain: GDSVEKIVLELSGLSC(Carboxymethyl)HHC(Carboxymethyl)VARVKKALEEAGAKVEKVDLNEAVVAGNKEDVDKYIKAVEAAGYQAKLRS
**Q.** How did the “stoichiometry N” value turn out when B1 was run?
**A.** Its value is 2 and 4.
